Consider two substances from US6489125.

In series [1] the test system is type 2 ryanodine receptor (RyR2), native channel from cardiac sarcoplasmic reticulum.
The target in series [2] is RyR2 channels from failing hearts. Put plainly: cell-based or functional assay.
Series [3] shares this target. Put plainly: co-immunoprecipitation, immunoblot densitometry (FIG. 4B). A general note: In western blotting, separated proteins are transferred to a membrane and probed.

“protein kinase A (PKA) catalytic subunit, endogenous in cardiac SR”: in series [1], the “phosphorylation of RyR2 on addition of cAMP without exogenous PKA” value is given as “Addition of phosphorylation buffer including cAMP without exogenous PKA also resulted in phosphorylation of RyR2 that was inhibited by PKI”.

“FK-506 binding protein FKBP12.6, native from cardiac SR (from UniProt P68106 1-108)” had an open probability (Po) at 50 nM cis (cytosolic) Ca^2+ in series [2] of 0.24. This substance yielded a decrease in the amount of FKBP12.6 bound (failing against normal hearts) in series [3] of 60%.
